Experimental data: US20240228612A1 (SICHUAN KELUN BIOTECH BIOPHARMACEUTICAL, published 2024)

T1: human Nectin-4 protein (human, UniProt Q96NY8 32-349)
T1 construct: Purified protein used for coating in ELISA and as analyte in Octet; also called human Nectin-4 antigen
T1 sequence (looked up): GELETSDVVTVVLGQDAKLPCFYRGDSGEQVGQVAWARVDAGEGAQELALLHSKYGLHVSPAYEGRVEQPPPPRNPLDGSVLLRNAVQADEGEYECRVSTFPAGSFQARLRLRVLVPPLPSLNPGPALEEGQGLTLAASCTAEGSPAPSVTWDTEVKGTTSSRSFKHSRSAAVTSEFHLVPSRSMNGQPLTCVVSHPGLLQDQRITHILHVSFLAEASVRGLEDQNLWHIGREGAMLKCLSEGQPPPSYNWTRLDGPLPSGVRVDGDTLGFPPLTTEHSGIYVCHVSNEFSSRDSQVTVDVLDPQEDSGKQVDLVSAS

T2: two IgC domains of human Nectin-4 overexpressed on A549 cells (human, UniProt Q96NY8 148-349, limits assumed)
T2 construct: domain: two IgC domains; also called A549-Nectin-4-IgCC
T2 sequence (looked up): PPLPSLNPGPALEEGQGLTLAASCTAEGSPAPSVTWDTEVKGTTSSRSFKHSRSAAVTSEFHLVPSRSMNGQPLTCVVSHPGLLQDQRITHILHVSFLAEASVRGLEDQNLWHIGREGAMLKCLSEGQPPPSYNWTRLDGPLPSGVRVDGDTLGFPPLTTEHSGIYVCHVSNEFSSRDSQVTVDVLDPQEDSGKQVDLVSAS

T3: human Nectin-1 antigen (human, UniProt Q15223 31-334, limits assumed)
T3 sequence (looked up): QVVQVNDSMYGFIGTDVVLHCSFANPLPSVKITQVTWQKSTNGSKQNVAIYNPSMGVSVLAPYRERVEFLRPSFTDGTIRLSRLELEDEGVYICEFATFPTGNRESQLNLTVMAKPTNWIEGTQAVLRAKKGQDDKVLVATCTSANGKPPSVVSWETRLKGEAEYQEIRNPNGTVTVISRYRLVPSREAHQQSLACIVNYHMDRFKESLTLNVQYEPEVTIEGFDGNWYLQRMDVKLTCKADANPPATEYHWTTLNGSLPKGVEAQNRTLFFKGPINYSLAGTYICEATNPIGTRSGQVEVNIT


Legend:
[1] = target: human Nectin-3 antigen (human, UniProt Q9NQS3 58-404, limits assumed); test: ELISA, coated human Nectin-3, anti-human-HRP
Protocol: (§1) The Nectin family includes members of Nectin-1, Nectin-2, Nectin-3 and Nectin-4, and the members share a sequence identity of about 25%, but have similar structure and function. […] The specific steps were as follows: human Nectin-1, Nectin-2, Nectin-3 and Nectin-4 antigens were diluted to 1 μg/mL with CBS coating solution, coated on an ELISA plate at 100 μL per well, and standed overnight at 4° C.; the liquid in the well was discarded on the next day, and washing was performed once with 300 μL of PBS; 100 μL of PBS (containing 2% BSA) was added, and blocking was performed at 37° C. for 2 hours; 31HZ, 56HZ, 74HZ and Enfortumab antibodies were diluted with PBS (containing 2% BSA), 100 μL was taken and added to the corresponding well, incubated at 37° C. for 2 hours; washing was performed 3 times with 300 μL of PBST; HRP-labeled goat anti-human secondary antibody was diluted at a ratio of 1:10000 with PBS (containing 2% BSA), 100 μL was taken and added to the corresponding well, incubation was performed at 37° C. for 1 hour; washing was performed 5 times with 300 μL of PBST; 100 μL of TMB color development solution was added to the corresponding well, and color development was performed at room temperature for 5-20 minutes; 50 μL of 2N H₂SO₄ was added for stopping, a microplate reader was used for collecting readings at OD450 nm, and the data were imported into Graphpad Prism for curve fitting.

[2] = target: T1, human Nectin-4 protein; test: BLI (Octet Fortebio), antibody on ProA sensor, Nectin-4 as analyte, 1:1 global fit
Protocol: (§2) The dynamic affinity of anti-human Nectin-4 humanized monoclonal antibodies was detected using Octet Fortebio®. The main steps comprised: firstly, the anti-human Nectin-4 humanized monoclonal antibody (concentration of 5 μg/mL) was immobilized on ProA sensor, then subjected to binding reaction with human or cynomolgus monkey Nectin-4 (gradiently diluted to 400 nM, 200 nM, 100 nM, 50 nM, 25 nM, 12.5 nM, 6.25 nM, 0 nM), and the anchored product in the solid phase obtained through fully reaction was subjected to dissociation reaction in PBST buffer. After the completion of the experiment, the results were analyzed by using Data Analysis 11.0 software at 1:1 mode to perform global fitting, thereby obtaining the affinity constant of antibody to antigen.

[3] = target: T4, cynomolgus monkey Nectin-4 protein (cynomolgus monkey); test: as above
T4 construct: also called cynomolgus monkey Nectin-4 antigen
Protocol: as §2

[4] = target: T2, two IgC domains of human Nectin-4 …; test: flow cytometry on A549-Nectin-4-IgCC cells
Excerpt: Human Nectin-4 contains one IgV domain and two IgC domains. To determine the binding domain of the anti-human Nectin-4 humanized monoclonal antibodies, an A549 stable cell line A549-Nectin-4-IgV overexpressing Nectin-4 IgV domain, and an A549 stable cell line A549-Nectin-4-IgCC overexpressing two IgC domains of Nectin-4 were constructed, and the binding domains of the antibody to be tested were detected by flow cytometry. The specific steps were as follows: A549-Nectin-4-IgV and A549-Nectin-4-IgCC cells were digested, resuspended by centrifugation, washed twice with PBS; the cells were resuspended with PBS (containing 1% BSA), and spread at 300,000 cells/well into a 96-well tip-bottom plate, 50 μl per well; 50 μL of the antibody to be tested at a final concentration of 40 μg/mL was added to each well, and Human IgG was used as a negative control; after being mixed well, the resulting mixture was reacted in the dark at 4° C. for 1 hour; washing was performed 3 times with PBS, FITC-labeled anti-human Fc secondary antibody (brand: BioLegend, product number: 409322) was added, incubated at 4° C. for 0.5 hours in the dark; washing was performed 3 times with PBS, and detection was carried out using a flow cytometer (flow cytometer brand: Beckman, model: Cytoflex).

[5] = target: T1, human Nectin-4 protein; test: ELISA, coated antigen
Excerpt: (§3) The affinity of anti-human Nectin-4 humanized monoclonal antibodies to Nectin-4 protein of different species was detected by ELISA.

[6] = target: T4, cynomolgus monkey Nectin-4 protein; test: ELISA, coated antigen
Excerpt: as §3

[7] = target: T3, human Nectin-1 antigen; test: ELISA, coated human Nectin-1, anti-human-HRP
Protocol: as §1

Chain of human Nectin-3 antigen (Q9NQS3 58-404 limits assumed): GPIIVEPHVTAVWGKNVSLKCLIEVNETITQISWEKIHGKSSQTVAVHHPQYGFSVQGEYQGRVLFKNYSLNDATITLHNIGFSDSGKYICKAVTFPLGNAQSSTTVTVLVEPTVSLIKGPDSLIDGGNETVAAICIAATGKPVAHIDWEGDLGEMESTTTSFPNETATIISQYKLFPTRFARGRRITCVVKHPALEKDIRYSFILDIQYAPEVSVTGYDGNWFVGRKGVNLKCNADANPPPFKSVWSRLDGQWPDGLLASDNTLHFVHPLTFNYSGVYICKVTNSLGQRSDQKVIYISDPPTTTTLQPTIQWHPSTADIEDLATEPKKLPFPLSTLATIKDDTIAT

| binding result [1] | Kd [2] [nM] | Kd [3] [nM] | binding result [4] | EC50 [5] [ng/mL] | EC50 [6] [ng/mL] | binding result [7] | Binder |
| --- | --- | --- | --- | --- | --- | --- | --- |
| no binding (tested: 10000 ng/mL) | 12.1 | 9.54 | no binding | 8.34 | 6.73 | no binding (tested: 10000 ng/mL) | anti-human Nectin-4 humanized monoclonal antibody 74HZ (antibody, human IgG1, kappa, V domains shown, Human IgG1 heavy chain constant region, human kappa light chain constant region; expressed in CHO-E cells) VH: QVQLVQSGAEVKKPGSSVKVSCKASGYTFINYWMNWVRQAPGQGLEWIGMIHPSDSATRLNQSFQGRVTLTVDKSTSTAYMELSSLRSEDTAVYYCARWGNFYTVNAWYYFDYWGQGTLVTVSS VL: DIVITQSPDSLAVSLGERATINCKSSQTLLNSNTQKNYLAWYQQKPGQSPKLLFYFASTRESGVPDRFSGSGSGTDFTLTISSLQAEDVAVYFCQQHYSTPLTFGQGTKLEIKR |
| no binding (tested: 10000 ng/mL) | 22.5 | 14.5 | no binding | 3.6 | 4.45 | no binding (tested: 10000 ng/mL) | anti-human Nectin-4 humanized monoclonal antibody 31HZ (antibody, human IgG1, kappa, V domains shown, Human IgG1 heavy chain constant region, human kappa light chain constant region; expressed in CHO-E cells) VH: QVQLVQSGAEVKKPGSSVKVSCKASGYTFTDYWMNWVRLAPGQGLEWIGMIHPSDSETRLNQKFQGRVTLTVDKSTSTAYMELSSLRSEDTAVYYCARWDFRIYYAMDYWGQGTLVTVSS VL: DVVITQSPDSLAVSLGERATINCKSSQSLLNTNSQKNYLAWYQQKPGQSPKLLVYFASTRESGVPDRFSGSGSGTDFTLTISSLQAEDVAVYFCQQHYSTPLTFGGGTKVEIKR |
| no binding | 19.6 | 18.4 | no binding | 9.48 | 9.85 | no binding | anti-human Nectin-4 humanized monoclonal antibody 56HZ (antibody, human IgG1, kappa, V domains shown, Human IgG1 heavy chain constant region, human kappa light chain constant region; expressed in CHO-E cells) VH: QVQLQESGPGLVKPSQTLSLTCTVSGYFNSITSDYDWHWIRHHPGKGLEWMGYISFSGRTYYNPSLKSRVTISHDTSKNQFSLKLSSVTAADTAVYYCARGNYDGFDYWGQGTLVTVSS VL: DIVLTQSPATLSLSPGERATLSCRASQNIGTSIHWYQHKPGQSPRLLIKFASESISGIPARFSGSGSGTDFTLTISSLEPEDFAVYYCQQSKSWPTYTFGGGTKVEIKR |
